These results are taken from publication PMC4916508, “Structural insights of a hormone sensitive lipase homologue Est22” (Scientific Reports, 2016).

A word on the stoichiometry N: it is the number of molecules, sites or subunits per partner or assembly. What is called Km is the concentration of substrate that gives half-maximal velocity. Broadly, the kcat is the maximal rate divided by the concentration of active sites.

For series [1], the target named is Est22 (wild type) (bacterial, deep-sea sediment metagenomic library). Kind of series: SEC-MALS; 20 ul of 1 mg/ml Est22 on a wtc030s5 column (Wyatt), 20 mM Tris-HCl, 100 mM NaCl, pH 7.4. (SEC sorts molecules by how far they enter the pores of the column.)
The target is the same in series [2]. Kind of series: SEC; gel filtration profiles of wild type and mutants, Superdex 200 16/600 (panel C); column of panel E not given.
Series [3] deals with Est22 S188A/H317A (bacterial, deep-sea sediment metagenomic library). The series is described as above.
For series [4], the target named is Est22 S188A (bacterial, deep-sea sediment metagenomic library). The series is described as above.
Series [5] has as its target Est22 S188A/D287A (bacterial, deep-sea sediment metagenomic library). Described as above.
Substrate in the series “purified protein”: CC(=O)Oc1ccc([N+](=O)[O-])cc1
In words: purified protein. Format: biochemical, uncultured bacterium. The following applies: 100 mM Tris-HCl, pH 7.5, 40 °C.

Series [6] deals with the molecule itself. Kind of series: SEC; gel filtration profiles of wild type and mutants, Superdex 200 16/600 (panel C); column of panel E not given.

In the case of Est22 (wild type) (enzyme), the stoichiometry N in series [1] and in series [2] was 2 in each case.
Est22 S188A/H317A (enzyme) showed a stoichiometry N in series [3] of 2.
The molecule Est22 S188A (enzyme) came in with a stoichiometry N in series [4] of 2.
Est22 S188A/D287A (enzyme): the stoichiometry N in series [5] turned out to be 2.

B1: Est22 (uncultured bacterium) (protein)
chain: MTNKIAEDPRIDPRIKAIFSGMDLGGGGDVESREAMLEAASSEEATAVRDGLRVFLDACDNEEIAPSAGLKIEDYEFTSEPDGNIAKIQYIRPDSTDKLPCVYYIHGGGMQSLSCYYGNYRAWGKIIASNGVAVAMVEFRNALVPSALPEVAPYPAGLNDCVSGVKWVASHADELGIDASRIIIAGESGGGNLTLAAGLRLKQEGSQDLIQGLYALCPYIAGSWPSEDSPSSTENNGILLDLHNNQGAMGYGIEAYEMRDPLAWPGFATEEDVSGLVPTFISVNECDPLRDEGINFYRLLLRAGVSAKCRQVMGTIHGTEIFPIACPDVSRDTAASIANFCKGG
notes: full length 1-344 aa, N-terminal 6xHis tag (pET28b), E. coli Rosetta (DE3)
For the molecule B1, in “purified protein”, the Km is 489.9 µM and the catalytic constant (kcat) is 3160 s⁻¹.

B2: Est22 S170A (enzyme)
chain: MGSSHHHHHHHSSGLVPRGSHMTNKIAEDPRIDPRIKAIFSGMDLGGGGDVESREAMLEAASSEEATAVRDGLRVFLDACDNEEIAPSAGLKIEDYEFTSEPDGNIAKIQYIRPDSTDKLPCVYYIHGGGMQSLSCYYGNYRAWGKIIASNGVAVAMVEFRNALVPSALPEVAPYPAGLNDCVSGVKWVAAHADELGIDASRIIIAGESGGGNLTLAAGLRLKQEGSQDLIQGLYALCPYIAGSWPSEDSPSSTENNGILLDLHNNQGAMGYGIEAYEMRDPLAWPGFATEEDVSGLVPTFISVNECDPLRDEGINFYRLLLRAGVSAKCRQVMGTIHGTEIFPIACPDVSRDTAASIANFCKGG
Turning to B2, the “stoichiometry N” value in series [6] was 2.
